PMC5389675

Tests used:
Experiment in all cases: EMSA
ETV4 337-484 = ETV4 337-484 (Homo sapiens, UniProt P43268 337-484)
ETV4 FL K226ac = ETV4 FL K226ac (Homo sapiens, UniProt P43268 1-484)
ETV4 FL K260ac = ETV4 FL K260ac (Homo sapiens, UniProt P43268 1-484)
ETV4 337-436 F428A/F432A = ETV4 337-436 F428A/F432A (Homo sapiens, UniProt P43268 337-436, F428A;F432A)
ETV4 FL E423K = ETV4 FL E423K (Homo sapiens, UniProt P43268 1-484, E423K)
ETV4 FL F428A/F432A = ETV4 FL F428A/F432A (Homo sapiens, UniProt P43268 1-484, F428A;F432A)
ETV4 337-436 E425K = ETV4 337-436 E425K (Homo sapiens, UniProt P43268 337-436, E425K)
ETV4 337-436 E423K = ETV4 337-436 E423K (Homo sapiens, UniProt P43268 337-436, E423K)
ETV4 FL E425K = ETV4 FL E425K (Homo sapiens, UniProt P43268 1-484, E425K)
ETV4 337-436 E404K = molecular target: T1, ETV4 337-436 E404K (Homo sapiens, UniProt P43268 337-436, E404K)
T1 sequence: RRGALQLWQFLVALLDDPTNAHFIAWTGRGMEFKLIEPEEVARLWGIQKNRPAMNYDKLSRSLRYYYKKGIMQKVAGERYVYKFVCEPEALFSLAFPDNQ

ETV4 FL E404K = ETV4 FL E404K (Homo sapiens, UniProt P43268 1-484, E404K)
ETV4 FL L430A = ETV4 FL L430A (Homo sapiens, UniProt P43268 1-484, L430A)
ETV4 FL I407A/L430A = ETV4 FL I407A/L430A (Homo sapiens, UniProt P43268 1-484, I407A;L430A)
ETV4 L430M = ETV4 L430M (Homo sapiens, UniProt P43268 1-484, L430M)
Sequence of ETV4 L430M (P43268 whole entry L430M): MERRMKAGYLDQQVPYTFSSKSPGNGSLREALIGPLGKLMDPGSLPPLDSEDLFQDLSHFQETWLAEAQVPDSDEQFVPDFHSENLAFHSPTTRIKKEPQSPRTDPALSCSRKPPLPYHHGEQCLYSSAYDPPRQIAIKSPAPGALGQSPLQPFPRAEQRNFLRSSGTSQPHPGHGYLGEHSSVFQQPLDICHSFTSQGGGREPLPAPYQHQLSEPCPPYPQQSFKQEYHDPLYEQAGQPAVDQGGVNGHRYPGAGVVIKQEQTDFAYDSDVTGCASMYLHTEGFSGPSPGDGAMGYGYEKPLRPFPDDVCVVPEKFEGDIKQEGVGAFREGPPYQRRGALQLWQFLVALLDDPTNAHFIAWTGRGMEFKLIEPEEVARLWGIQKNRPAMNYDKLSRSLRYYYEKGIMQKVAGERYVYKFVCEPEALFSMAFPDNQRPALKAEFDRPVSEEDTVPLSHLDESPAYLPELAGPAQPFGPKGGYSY

Sequence of ETV4 FL E425K (P43268 whole entry E425K): as the sequence (P43268 whole entry L430M) above, with E425K, M430L counted along it
Sequence of ETV4 FL I407A/L430A (P43268 whole entry I407A/L430A): as the sequence (P43268 whole entry L430M) above, with I407A, M430A counted along it
Sequence of ETV4 FL E404K (P43268 whole entry E404K): as the sequence (P43268 whole entry L430M) above, with E404K, M430L counted along it
Sequence of ETV4 FL K260ac (P43268 whole entry): as the sequence (P43268 whole entry L430M) above, with M430L counted along it
Sequence of ETV4 FL K226ac (P43268 whole entry): as the sequence (P43268 whole entry L430M) above, with M430L counted along it
Sequence of ETV4 FL E423K (P43268 whole entry E423K): as the sequence (P43268 whole entry L430M) above, with E423K, M430L counted along it
Sequence of ETV4 FL L430A (P43268 whole entry L430A): as the sequence (P43268 whole entry L430M) above, with M430A counted along it
Sequence of ETV4 337-484 (P43268 337-484): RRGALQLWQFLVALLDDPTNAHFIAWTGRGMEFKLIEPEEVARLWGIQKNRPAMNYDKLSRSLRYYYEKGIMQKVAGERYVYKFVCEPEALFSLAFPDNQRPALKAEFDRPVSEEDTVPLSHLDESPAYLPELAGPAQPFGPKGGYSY
Sequence of ETV4 FL F428A/F432A (P43268 whole entry F428A/F432A): as the sequence (P43268 whole entry L430M) above, with F428A, M430L, F432A counted along it

B1: 27-mer consensus ETS duplex (dsDNA)
DNA 1: TCGACGGCCAAGCCGGAAGTGAGTGCC
DNA 2: TCGAGGCACTCACTTCCGGCTTGGCCG
For B1, the Kd (ETV4 337-484) was 0.11 ± 0.02 nM, the Kd (ETV4 FL K226ac) was 0.3 ± 0.06 nM and the Kd (ETV4 FL K260ac) was 0.51 ± 0.03 nM. B1: binds (ETV4 337-436 F428A/F432A); binds (ETV4 FL E423K); binds (ETV4 FL F428A/F432A). B1: binds (ETV4 337-436 E425K); binds (ETV4 337-436 E423K); binds (ETV4 FL E425K). B1: binds (ETV4 337-436 E404K); binds (ETV4 FL E404K); binds (ETV4 FL L430A). B1: binds (ETV4 FL I407A/L430A); binds (ETV4 L430M).
